In patent publication US6958236B2, “Control of gene expression in plants” (priority 2000, dated 2005):

B1: G(M)EV: EcR chimera: GAL4 DBD, Manduca sexta D domain, European corn borer E domain, VP16; SEQ ID NO:120-121 (protein)
chain: MQQLYVDFFSPAFIRYLFAWYCFFCRCSPCCLVLLLQGSATMKLLSSIEQACDICRLKKLKCSKEKPKCAKCLKNNWECRYSPKTKRSPLTRAHLTEVESRLERLEQLFLLIFPREDLDMILKMDSLQDIKALLTGLFVQDNVNKDAVTDRLASVETDMPLTLRQHRISATSSSEESSNKGQRQLTVSTRMRPECVVPESTCKNKRREKEAQREKDKLPVSTTTVDDHMPAIMQCDPPPPEAARIHEVVPRFLTEKLMEQNRLKNVTPLSANQKSLIARLVWYQDGYEQPSEEDLKRVTQTWQSADEEDEDSDMPFRQITEMTILTVQLIVEFAKGLPGFSKISQPDQITLLKACSSEVMMLRVARRYDAVSDSVLFANNQAYTRDNYRKAGMAYVIEDLLHFCRCMYSMSMDNVHYALLTAIVIFSDRPGLEQPQLVEEIQRYYLNTLRVYIMNQHSASPRCAVIYAKILSVLTELRTLGMQNSNMCISLKLKNRKLPPFLEEIWDVKLAPPTDVSLGDELHLDGEDVAMAHADALDDFDLDMLGDGDSPGPGFTPHDSAPYGALDMADFEFEQMFTDALGIDEYGG
B2: G(M)MV: EcR chimera: GAL4 DNA binding domain, Manduca sexta D and E domains, VP16; SEQ ID NO:104-105 (protein)
chain: MKLLSSIEQACDICRLKKLKCSKEKPKCAKCLKNNWECRYSPKTKRSPLTRAHLTEVESRLERLEQLFLLIFPREDLDMILKMDSLQDIKALLTGLFVQDNVNKDAVTDRLASVETDMPLTLRQHRISATSSSEESSNKGQRQLTVSTRMRPECVVPESTCKNKRREKEAQREKDKLPVSTTTVDDHMPAIMQCDPPPPEAARIHEVVPRFLTEKLMEQNRLKNVTPLSANQKSLIARLVWYQEGYEQPSEEDLKRVTQTWQLEEEEEEETDMPFRQITEMTILTVQLIVEFAKGLPGFSKISQSDQITLLKASSSEVMMLRVARRYDAATDSVLFANNQAYTRDNYRKAGMSYVIEDLLHFCRCMYSMSMDNVHYALLTAIVIFSDRPGLEQPLLVEEIQRYYLKTLRVYILNQHSASPRCAVLFGKILGVLTELRTLGTQNSNMCISLKLKNRKLPPFLEEIWDVAEVSTTKLAPPTDVSLGDELHLDGEDVAMAHADALDDFDLDMLGDGDSPGPGFTPHDSAPYGALDMADFEFEQMFTDALGIDEYGG
modifications: (1)..(3972) GAL4-Manduca EcR-VP16 fragment in pCGS202

Test system: pCGS206 (luciferase reporter with response elements for the GAL4 DNA binding domain)
Assay: Maize BMS cells bombarded with GAL4 luciferase reporter and receptor vector, GUS-normalized luciferase
Assay type: cell-based
Details: for Normalized Average (EtOH): unliganded background
Experimental: (§1) Maize BMS (Black Mexican Sweet) cultured cells are transfected with pCGS206 and pCGS208 by high velocity microprojectile bombardment. In addition, an expression plasmid containing the maize ubiquitin promoter driving the expression of β-glucuronidase (GUS) is added to the transfection to serve as an internal control to normalize against variations among the samples.
(§2) Transfections are treated and cell lysates are made essentially as described in U.S. Pat. No. 5,880,333. […] Both luciferase and GUS assays are performed with 20 μl of cell lysate for each assay using the Promega Luciferase Kit (Promega cat #E1500) and GUS-Light Kit (Tropix) respectively. Relative light units are determined using a Turner Designs TD 20/20 luminometer.
In addition to tebufenozide, methoxytebufenozide (“MethoxyTeb”) is also capable of inducing gene expression in maize BMS cells. Both pCGS206 and pCGS208 are transfected as described above and methoxytebufenozide is added in place of tebufenozide at 25 μM and 10 μM.
Maize BMS cells are transfected and assayed as in Example 12.
as §1, with “Transformation of maize suspension cells, chemical treatment, and reporter activity assays are performed as described in Example 12. Maize” for “Maize”, “pCGS206 (pBS-bz1TATA/intronLUC), pCGS203 (G(M)MV), pCGS672 (G(M)MC),” for “pCGS206”, “pCGS678 (G(M)MD)” for “pCGS208”
as §2, with “Maize BMS cells are bombarded with reporter vector pCGS206 and chimeric receptors and treated with tebufenozide essentially as described in Example 12. Transfections” for “Transfections”, “units (RLU)” for “units”

[1] = Example 24, Experiment 1, 20 μM Teb
[2] = Example 24, Experiment 1, BMS cells
[3] = Example 24, Experiment 2, 20 μM Teb
[4] = Example 24, Experiment 2, BMS cells
[5] = Example 26, + 10 μM Teb vs without
[6] = Example 26, BMS cells, reporter pCGS206, no ligand
[7] = Example 28, BMS cells, reporter pCGS206, no ligand, GUS-normalized

Row | Molecule | average fold activation of the Manduca G(M)MV EcR (ubi/GAL4-MV) (maize BMS cells, methoxytebufenozide 25 μM and 10 μM) [fold] | Fold Induction with Teb Relative to Receptor with EtOH [1] [fold] | Fold Induction with Teb Relative to Reporter with EtOH [1] [fold] | Normalized Average (EtOH) [2] | Fold Induction with Teb Relative to Receptor with EtOH [3] [fold] | Fold Induction with Teb Relative to Reporter with EtOH [3] [fold] | Normalized Average (EtOH) [4] | rank of fold induction among D+E domain combinations (Example 24, BMS cells, 20 μM Teb) | Experiment #1 Luciferase (Example 26, + 10 μM Teb) | Experiment #2 Luciferase (Example 26, + 10 μM Teb) | Experiment #1 Fold Induction [5] [fold] | Experiment #2 Fold Induction [5] [fold] | Experiment #1 Luciferase [6] | Experiment #2 Luciferase [6] | Experiment #1 RLU [7] [RLU] | Experiment #2 RLU [7] [RLU] | average fold induction with tebufenozide (maize BMS cells, 10 μM tebufenozide, average of assays) [fold]
1 | COc1cccc(C(=O)NN(C(=O)c2cc(C)cc(C)c2)C(C)(C)C)c1C [methoxytebufenozide, reference compound] | 25 | – | – | – | – | – | – | – | – | – | – | – | – | – | – | – | –
2 | B1 | – | 63 | 119 | 6.965 | 58 | 139 | 0.028 | highest fold induction | – | – | – | – | – | – | – | – | –
3 | B2 | – | 44 | 83 | 6.889 | 15 | 61 | 1.721 | – | 99.49 | 136.41 | 16.7 | 35.1 | 5.97 | 3.89 | 3.73 | 3.17 | 36
